The target of assay [1] is T1, recombinant human β-catenin, full-length (human, UniProt P35222 1-781, limits assumed).
T1 construct: Purified from E. coli; also called full-length β-catenin
T1 sequence (looked up): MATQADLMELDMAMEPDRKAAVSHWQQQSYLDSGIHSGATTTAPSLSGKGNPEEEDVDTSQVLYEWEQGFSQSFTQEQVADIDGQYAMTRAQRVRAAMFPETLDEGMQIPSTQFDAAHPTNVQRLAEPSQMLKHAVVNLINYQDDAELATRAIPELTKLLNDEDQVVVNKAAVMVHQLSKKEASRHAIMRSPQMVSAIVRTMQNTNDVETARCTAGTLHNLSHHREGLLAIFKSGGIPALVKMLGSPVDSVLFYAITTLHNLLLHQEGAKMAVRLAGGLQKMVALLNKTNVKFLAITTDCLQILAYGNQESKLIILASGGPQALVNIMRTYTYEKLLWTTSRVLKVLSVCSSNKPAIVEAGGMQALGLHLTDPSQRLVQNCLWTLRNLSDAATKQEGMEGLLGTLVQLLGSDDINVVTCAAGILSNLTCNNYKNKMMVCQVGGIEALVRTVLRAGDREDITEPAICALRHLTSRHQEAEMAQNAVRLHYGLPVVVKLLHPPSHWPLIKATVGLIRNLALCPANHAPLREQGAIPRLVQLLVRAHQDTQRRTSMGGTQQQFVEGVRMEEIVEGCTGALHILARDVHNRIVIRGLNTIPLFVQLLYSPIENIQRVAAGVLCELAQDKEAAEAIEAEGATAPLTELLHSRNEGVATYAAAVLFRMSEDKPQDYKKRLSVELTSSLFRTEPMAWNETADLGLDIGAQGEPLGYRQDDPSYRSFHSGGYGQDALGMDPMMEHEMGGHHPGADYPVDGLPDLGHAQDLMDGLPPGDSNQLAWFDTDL
The assay is described as follows: not stated at this place (description). How it is done:
The dissociation was induced by two injections of regeneration solution of 15 μl each at the identical flow rates.

Assay [2] has as its target T2, pTag1 peptide (PDRVRAVSHWSS), biotinylated (reading uncertain).
T2 construct: Immobilised on Streptavidin biosensors
T2 peptide: {Biotin-ethylene glycol linker}-PDRVRAVSHWSS
The assay is described as follows: biolayer interferometry, biotinylated peptide on Streptavidin biosensor; reference original BC2T (SEQ ID NO:4). How it is done:
Biolayer interferometry (BLI)-based affinity measurements were used to assess two improved variations of the original BC2T sequence (a: […], pTag1 SEQ ID NO:33; b: […], pTag2 SEQ ID NO:34) in comparison with the original BC2T sequence (c: BC2T SEQ ID NO:4).
The shaking rate was 1200 rpm. As a reference, each peptide was also incubated with BLItz buffer only according to the protocol above. […] The sensor was regenerated by sequential dips into 10 mM glycine pH 2.0 and BLItz buffer (repeated three times). Raw data were analysed using the software BLItz Pro (fortéBio) and a 1:1 binding model.
For orientation: Biolayer interferometry detects binding as a change in optical thickness at a sensor tip.

A further assay has as its target T3, BC2T V7T.
T3 construct: positional scanning library member
T3 peptide: Ac-PDRKAATSHWQQ-NH2
The experiment in a line: positional peptide library pulldown on immobilised Nb, LC-MS of supernatant; signal ratio to control GFP-Nb (1 = not captured, near 0 = captured). The method, boiled down:
(§1)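 Unbound peptide left in supernatant after 1 h pulldown in PBS/0.01% CHAPS measured by reversed-phase LC-MS (8–30% eluent B gradient, 20 min).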

Another assay has as its target T4, BC2T P1N.
T4 construct: positional scanning library member
T4 peptide: Ac-NDRKAAVSHWQQ-NH2
Described as above. The method, boiled down: as §1

The target in a further assay is T5, BC2T D2P.
T5 construct: positional scanning library member
T5 peptide: Ac-PPRKAAVSHWQQ-NH2
The assay is described as above. The method, boiled down: as §1

For a further assay, the target named is T6, BC2T A5Y.
T6 construct: positional scanning library member
T6 peptide: Ac-PDRKYAVSHWQQ-NH2
The description is as above. The essentials:
as §1

The target of a further assay is T7, BC2T K4C(Abu) (not fully specified (residue 4)).
T7 construct: positional scanning library member
T7 peptide: Ac-PDRCAAVSHWQQ-NH2
The assay is described as above. The essentials: as §1

For the next assay, the target named is T8, BC2T V7K.
T8 construct: positional scanning library member
T8 peptide: Ac-PDRKAAKSHWQQ-NH2
The assay is described as above. The essentials: as §1

A further assay addresses T9, BC2T D2R.
T9 construct: positional scanning library member
T9 peptide: Ac-PRRKAAVSHWQQ-NH2
Described as above. The essentials:
as §1

In the next assay the target is T10, BC2T K4H.
T10 construct: positional scanning library member
T10 peptide: Ac-PDRHAAVSHWQQ-NH2
Described as above. The essentials:
as §1

The next assay deals with T11, BC2T P1E.
T11 construct: positional scanning library member
T11 peptide: Ac-EDRKAAVSHWQQ-NH2
The assay is described as above. The essentials: as §1

For another assay, the target named is T12, BC2T Q12D.
T12 construct: positional scanning library member
T12 peptide: Ac-PDRKAAVSHWQD-NH2
Described as above. The method, boiled down: as §1

A further assay addresses T13, BC2T W10E.
T13 construct: positional scanning library member
T13 peptide: Ac-PDRKAAVSHEQQ-NH2
The description is as above. The method, boiled down: as §1

Positions count from the first letter of the chain named. Ends that are not written are not given here. * marks the point of attachment. Biotin = O=C1N[C@H]2[C@H](CS[C@H]2CCCCC(=O)*)N1; ethylene glycol linker = not defined here

B1: BC2 nanobody (VHH)
VHH: QVQLVESGGGLVQPGGSLTLSCTASGFTLDHYDIGWFRQAPGKEREGVSCINNSDDDTYYADSVKGRFTIFMDNAKDTVYLQMNSLKPEDTAIYYCAEARGCKRGRYEYDFWGQGTQVTVSS
notes: Alpaca VHH, 122 aa; also called BC2-Nb; BC2 nanotrap (BC2-Nb immobilized on agarose/Sepharose beads); not shown: C-terminal 6xHis-tag added by the pHEN6 vector
As usually defined, the Kd is the free concentration of one partner at which half of the binding sites on the other are occupied at equilibrium, for simple one-to-one binding. Regarding B1, the dissociation constant Kd in [1] is 3.7 nM. Besides, the “fold slower koff than for original BC2T” value in [2] stood at 7 fold.

B2: BC2-NbR106E (VHH)
VHH: B1 VHH with R106E
notes: headlock mutant of BC2-Nb; immobilised on beads in this assay
Turning to B2, the ratio with BC2T V7T worked out at 0.2; in the assay with BC2T P1N, 0.7; in the assay with BC2T D2P it was 0.8; in the assay with BC2T A5Y, 0.1; with BC2T K4C(Abu), 0.2; with BC2T V7K it was 0.1. The ratio in the assay with BC2T D2R is 0.1; with BC2T K4H, 0.2; with BC2T P1E, 0.8.

B3: BC2 nanobody (VHH)
VHH: B1 VHH
notes: immobilised on beads in this assay; also called BC2-Nb; BC2 nanotrap (immobilised)
Consider B3, for which the ratio with BC2T Q12D was found to be 0.6; with BC2T W10E, 1.1.

The values are drawn from patent publication US20170137467A1 (CHROMOTEK, published 2017).
